The target of data set [1] is T1, RcsB (Escherichia coli str. K-12 substr. …, UniProt P0DMC7 1-216).
T1 sequence: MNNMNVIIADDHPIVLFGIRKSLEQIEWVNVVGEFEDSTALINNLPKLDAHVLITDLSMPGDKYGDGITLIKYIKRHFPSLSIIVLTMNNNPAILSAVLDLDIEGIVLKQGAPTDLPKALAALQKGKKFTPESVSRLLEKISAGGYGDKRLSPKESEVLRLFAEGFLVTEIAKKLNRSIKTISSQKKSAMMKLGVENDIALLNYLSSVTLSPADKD
Put plainly: X-ray crystallography; unphosphorylated, 3.37 A; tetramer on two DNAs; EMSA: 10 mM Tris pH 7.5, 40 mM KCl, 1 mM DTT, 10 mM MgCl2, 5% glycerol, 0.1 ug/ul BSA, room temp; SPR: 10 mM Tris-HCl pH 8.3, 150 mM NaCl, 0.5 mM TCEP, 25 C. Particulars: protein: recombinant; tags: N-terminal 6xHis (pCA24n, ASKA clone); chain copies: 2; blunt.

Data set [2] deals with the molecule itself. Nature of the data set: SEC-MALS; RcsB in the presence of the 22-bp DNA duplex DNA22, with and without CPh; RcsB and DNA 1 mg/ml; Superdex 75 10/300 GL; 10 mM Tris-HCl pH 8.3, 150 mM NaCl, 0.5 mM TCEP; 22°C. (SEC sorts molecules by how far they enter the pores of the column.)
Data set [3] has as its target T1, RcsB. Nature of the data set: SPR; no CPh; EMSA: 10 mM Tris pH 7.5, 40 mM KCl, 1 mM DTT, 10 mM MgCl2, 5% glycerol, 0.1 ug/ul BSA, room temp; SPR: 10 mM Tris-HCl pH 8.3, 150 mM NaCl, 0.5 mM TCEP, 25 C. The settings on record: protein: recombinant; tags: N-terminal 6xHis (pCA24n, ASKA clone); chain copies: 2; label: biotin (SPR); blunt.

These results are taken from paper PMC5829831, “Structural Basis for DNA Recognition by the Two-Component Response Regulator RcsB” (mBio, 2018).

B1: DNA18 (flhDC RcsAB box) (dsDNA)
DNA 1: TTTAGGAAAAATCTTAGA
DNA 2: TCTAAGATTTTTCCTAAA
In the case of B1, in the data set with RcsB [1], the binding result is given as “binds”.

B2: RcsB, two-component response regulator of the Rcs phosphorelay system (natural protein, E. coli, UniProt P0DMC7 1-216, looked up)
chain: MNNMNVIIADDHPIVLFGIRKSLEQIEWVNVVGEFEDSTALINNLPKLDAHVLITDLSMPGDKYGDGITLIKYIKRHFPSLSIIVLTMNNNPAILSAVLDLDIEGIVLKQGAPTDLPKALAALQKGKKFTPESVSRLLEKISAGGYGDKRLSPKESEVLRLFAEGFLVTEIAKKLNRSIKTISSQKKSAMMKLGVENDIALLNYLSSVTLSPADKD
notes: RcsB from Escherichia coli, full length, REC domain, linker and HTH domain; theoretical mass of the monomer 24 kDa; In some samples carbamoyl phosphate (CPh) and MgCl2 were added to phosphorylate D56; also called RcsB* (in the presence of phosphodonor); unphosphorylated RcsB; source: purified RcsB
Regarding B2, the stoichiometry N – broadly, a count of units in the complex or per binding partner – in data set [2] is 2.

B3: DNA22, biotinylated (dsDNA)
DNA 1: GATTTAGGAAAAATCTTAGATA
DNA 2: TATCTAAGATTTTTCCTAAATC
For B3, in the data set with RcsB [3], the dissociation constant (Kd) (usually the concentration at which binding is half-saturated) was roughly 5.34 µM.
